Laboratory results: patent US20260265329A1, “POLYPEPTIDE AND DERIVATIVE THEREOF, COMPOSITION, AND USE THEREOF” (HANGZHOU SCIWIND BIOSCIENCES CO., LTD., priority 2023, published 2026)
Starred links: 1 amine or outer side, 2 acyl side, 3 side chain; linkers in the order of their positions; H or OH if unused. Non-standard residues stand in square brackets, D forms with d. Primed or numbered codes have the meaning given here. *: point of attachment. C20 diacid = O=C(O)CCCCCCCCCCCCCCCCCCC(=O)*; γGlu = O=C(O)[C@H](CCC(=O)[*:2])N[*:1]; βAsp = O=C(O)[C@H](CC(=O)[*:2])N[*:1]; Hyp = O=C(O)[C@@H]1C[C@@H](O)CN1; Inp′ = not defined here; Trx′ = not defined here; AEEA = NCCOCCOCC(=O)O

T1: human amylin receptor on CHO-K1/Ga15/AMY3 cells (amylin receptor/CRE-luc cell line) (human) (UniProt P30988)
T1 sequence (looked up) 1: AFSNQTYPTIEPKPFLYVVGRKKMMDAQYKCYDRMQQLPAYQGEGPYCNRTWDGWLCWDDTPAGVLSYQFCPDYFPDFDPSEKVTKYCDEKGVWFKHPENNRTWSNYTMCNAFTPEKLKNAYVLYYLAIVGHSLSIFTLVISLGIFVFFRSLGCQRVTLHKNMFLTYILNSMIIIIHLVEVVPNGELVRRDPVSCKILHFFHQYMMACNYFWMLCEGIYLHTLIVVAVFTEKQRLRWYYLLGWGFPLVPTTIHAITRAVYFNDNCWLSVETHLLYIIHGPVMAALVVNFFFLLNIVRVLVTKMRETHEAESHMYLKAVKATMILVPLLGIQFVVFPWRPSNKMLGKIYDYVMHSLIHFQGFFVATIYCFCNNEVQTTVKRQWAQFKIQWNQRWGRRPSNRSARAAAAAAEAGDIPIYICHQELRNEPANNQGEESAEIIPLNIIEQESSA
T1 sequence (looked up) 2: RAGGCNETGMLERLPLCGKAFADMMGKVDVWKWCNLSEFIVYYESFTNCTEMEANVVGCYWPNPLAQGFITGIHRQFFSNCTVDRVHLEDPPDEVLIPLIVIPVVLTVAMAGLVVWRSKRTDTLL


Target: T1, human amylin receptor on CHO-K1/Ga15/AMY3 cells (amylin receptor/CRE-luc cell line) (human)
Assay: cell-based or functional assay

Row | Binder | EC50 (luciferase assay, amylin receptor/CRE-luc CHO cells) | Relative activity (the EC50 ratio of Cagrilintide to the compound)
1 | {C20 diacid-Inp′}-ASQLSTAATQRLADFLRHSSNNLKPILPPTNVGSNT[Hyp]-NH2 [M30] | 0.039 nM | 130%
2 | {C20 diacid}-DASQLSTAATQRLADFLRHSSNNLKPILPPTNVGSNT[Hyp]-NH2 (SMILES CC[C@H](C)[C@H](NC(=O)[C@@H]1CCCN1C(=O)[C@H](CCCCN)NC(=O)[C@H](CC(C)C)NC(=O)[C@H](CC(N)=O)NC(=O)[C@H](CC(N)=O)NC(=O)[C@H](CO)NC(=O)[C@H](CO)NC(=O)[C@H](Cc1c[nH]cn1)NC(=O)[C@H](CCCNC(=N)N)NC(=O)[C@H](CC(C)C)NC(=O)[C@H](Cc1ccccc1)NC(=O)[C@H](CC(=O)O)NC(=O)[C@H](C)NC(=O)[C@H](CC(C)C)NC(=O)[C@H](CCCNC(=N)N)NC(=O)[C@H](CCC(N)=O)NC(=O)[C@@H](NC(=O)[C@H](C)NC(=O)[C@H](C)NC(=O)[C@@H](NC(=O)[C@H](CO)NC(=O)[C@H](CC(C)C)NC(=O)[C@H](CCC(N)=O)NC(=O)[C@H](CO)NC(=O)[C@H](C)NC(=O)[C@H](CC(=O)O)NC(=O)CCCCCCCCCCCCCCCCCCC(=O)O)[C@@H](C)O)[C@@H](C)O)C(=O)N[C@@H](CC(C)C)C(=O)N1CCC[C@H]1C(=O)N1CCC[C@H]1C(=O)N[C@H](C(=O)N[C@@H](CC(N)=O)C(=O)N[C@H](C(=O)NCC(=O)N[C@@H](CO)C(=O)N[C@@H](CC(N)=O)C(=O)N[C@H](C(=O)N1C[C@H](O)C[C@H]1C(N)=O)[C@@H](C)O)C(C)C)[C@@H](C)O) [M28] | 0.039 nM | 128%
3 | {C20 diacid-Trx′}-ASQLSTAATQRLADFLRHSSNNLKPILPPTNVGSNT[Hyp]-NH2 (reading uncertain) [M29] | 0.122 nM | 412%
4 | {C20 diacid-γGlu-AEEA-AEEA}-ASQLSTAATQRLADFLRHSSNNLKPILPPTNVGSNT[Hyp]-NH2 (SMILES CC[C@H](C)[C@H](NC(=O)[C@@H]1CCCN1C(=O)[C@H](CCCCN)NC(=O)[C@H](CC(C)C)NC(=O)[C@H](CC(N)=O)NC(=O)[C@H](CC(N)=O)NC(=O)[C@H](CO)NC(=O)[C@H](CO)NC(=O)[C@H](Cc1c[nH]cn1)NC(=O)[C@H](CCCNC(=N)N)NC(=O)[C@H](CC(C)C)NC(=O)[C@H](Cc1ccccc1)NC(=O)[C@H](CC(=O)O)NC(=O)[C@H](C)NC(=O)[C@H](CC(C)C)NC(=O)[C@H](CCCNC(=N)N)NC(=O)[C@H](CCC(N)=O)NC(=O)[C@@H](NC(=O)[C@H](C)NC(=O)[C@H](C)NC(=O)[C@@H](NC(=O)[C@H](CO)NC(=O)[C@H](CC(C)C)NC(=O)[C@H](CCC(N)=O)NC(=O)[C@H](CO)NC(=O)[C@H](C)NC(=O)COCCOCCNC(=O)COCCOCCNC(=O)CC[C@H](NC(=O)CCCCCCCCCCCCCCCCCCC(=O)O)C(=O)O)[C@@H](C)O)[C@@H](C)O)C(=O)N[C@@H](CC(C)C)C(=O)N1CCC[C@H]1C(=O)N1CCC[C@H]1C(=O)N[C@H](C(=O)N[C@@H](CC(N)=O)C(=O)N[C@H](C(=O)NCC(=O)N[C@@H](CO)C(=O)N[C@@H](CC(N)=O)C(=O)N[C@H](C(=O)N1C[C@H](O)C[C@H]1C(N)=O)[C@@H](C)O)C(C)C)[C@@H](C)O) [M31] | 0.168 nM | 30%
5 | {C20 diacid-βAsp-AEEA-AEEA}-ASQLSTAATQRLADFLRHSSNNLKPILPPTNVGSNT[Hyp]-NH2 (SMILES CC[C@H](C)[C@H](NC(=O)[C@@H]1CCCN1C(=O)[C@H](CCCCN)NC(=O)[C@H](CC(C)C)NC(=O)[C@H](CC(N)=O)NC(=O)[C@H](CC(N)=O)NC(=O)[C@H](CO)NC(=O)[C@H](CO)NC(=O)[C@H](Cc1c[nH]cn1)NC(=O)[C@H](CCCNC(=N)N)NC(=O)[C@H](CC(C)C)NC(=O)[C@H](Cc1ccccc1)NC(=O)[C@H](CC(=O)O)NC(=O)[C@H](C)NC(=O)[C@H](CC(C)C)NC(=O)[C@H](CCCNC(=N)N)NC(=O)[C@H](CCC(N)=O)NC(=O)[C@@H](NC(=O)[C@H](C)NC(=O)[C@H](C)NC(=O)[C@@H](NC(=O)[C@H](CO)NC(=O)[C@H](CC(C)C)NC(=O)[C@H](CCC(N)=O)NC(=O)[C@H](CO)NC(=O)[C@H](C)NC(=O)COCCOCCNC(=O)COCCOCCNC(=O)C[C@H](NC(=O)CCCCCCCCCCCCCCCCCCC(=O)O)C(=O)O)[C@@H](C)O)[C@@H](C)O)C(=O)N[C@@H](CC(C)C)C(=O)N1CCC[C@H]1C(=O)N1CCC[C@H]1C(=O)N[C@H](C(=O)N[C@@H](CC(N)=O)C(=O)N[C@H](C(=O)NCC(=O)N[C@@H](CO)C(=O)N[C@@H](CC(N)=O)C(=O)N[C@H](C(=O)N1C[C@H](O)C[C@H]1C(N)=O)[C@@H](C)O)C(C)C)[C@@H](C)O) [M33] | 0.145 nM | 37%
6 | {C20 diacid}-E[AEEA][AEEA]ASQLSTAATQRLADFLRHSSNNLKPILPPTNVGSNT[Hyp]-NH2 (SMILES CC[C@H](C)[C@H](NC(=O)[C@@H]1CCCN1C(=O)[C@H](CCCCN)NC(=O)[C@H](CC(C)C)NC(=O)[C@H](CC(N)=O)NC(=O)[C@H](CC(N)=O)NC(=O)[C@H](CO)NC(=O)[C@H](CO)NC(=O)[C@H](Cc1c[nH]cn1)NC(=O)[C@H](CCCNC(=N)N)NC(=O)[C@H](CC(C)C)NC(=O)[C@H](Cc1ccccc1)NC(=O)[C@H](CC(=O)O)NC(=O)[C@H](C)NC(=O)[C@H](CC(C)C)NC(=O)[C@H](CCCNC(=N)N)NC(=O)[C@H](CCC(N)=O)NC(=O)[C@@H](NC(=O)[C@H](C)NC(=O)[C@H](C)NC(=O)[C@@H](NC(=O)[C@H](CO)NC(=O)[C@H](CC(C)C)NC(=O)[C@H](CCC(N)=O)NC(=O)[C@H](CO)NC(=O)[C@H](C)NC(=O)COCCOCCNC(=O)COCCOCCNC(=O)[C@H](CCC(=O)O)NC(=O)CCCCCCCCCCCCCCCCCCC(=O)O)[C@@H](C)O)[C@@H](C)O)C(=O)N[C@@H](CC(C)C)C(=O)N1CCC[C@H]1C(=O)N1CCC[C@H]1C(=O)N[C@H](C(=O)N[C@@H](CC(N)=O)C(=O)N[C@H](C(=O)NCC(=O)N[C@@H](CO)C(=O)N[C@@H](CC(N)=O)C(=O)N[C@H](C(=O)N1C[C@H](O)C[C@H]1C(N)=O)[C@@H](C)O)C(C)C)[C@@H](C)O) [M32] | 0.115 nM | 44%

Next, values leading:

Row | EC50 (luciferase assay, amylin receptor/CRE-luc CHO cells) | Relative activity (the EC50 ratio of Cagrilintide to the compound) | Binder
7 | 0.132 nM | 40% | {C20 diacid}-D[AEEA][AEEA]ASQLSTAATQRLADFLRHSSNNLKPILPPTNVGSNT[Hyp]-NH2 (SMILES CC[C@H](C)[C@H](NC(=O)[C@@H]1CCCN1C(=O)[C@H](CCCCN)NC(=O)[C@H](CC(C)C)NC(=O)[C@H](CC(N)=O)NC(=O)[C@H](CC(N)=O)NC(=O)[C@H](CO)NC(=O)[C@H](CO)NC(=O)[C@H](Cc1c[nH]cn1)NC(=O)[C@H](CCCNC(=N)N)NC(=O)[C@H](CC(C)C)NC(=O)[C@H](Cc1ccccc1)NC(=O)[C@H](CC(=O)O)NC(=O)[C@H](C)NC(=O)[C@H](CC(C)C)NC(=O)[C@H](CCCNC(=N)N)NC(=O)[C@H](CCC(N)=O)NC(=O)[C@@H](NC(=O)[C@H](C)NC(=O)[C@H](C)NC(=O)[C@@H](NC(=O)[C@H](CO)NC(=O)[C@H](CC(C)C)NC(=O)[C@H](CCC(N)=O)NC(=O)[C@H](CO)NC(=O)[C@H](C)NC(=O)COCCOCCNC(=O)COCCOCCNC(=O)[C@H](CC(=O)O)NC(=O)CCCCCCCCCCCCCCCCCCC(=O)O)[C@@H](C)O)[C@@H](C)O)C(=O)N[C@@H](CC(C)C)C(=O)N1CCC[C@H]1C(=O)N1CCC[C@H]1C(=O)N[C@H](C(=O)N[C@@H](CC(N)=O)C(=O)N[C@H](C(=O)NCC(=O)N[C@@H](CO)C(=O)N[C@@H](CC(N)=O)C(=O)N[C@H](C(=O)N1C[C@H](O)C[C@H]1C(N)=O)[C@@H](C)O)C(C)C)[C@@H](C)O) [M34]
8 | 0.059 nM | 91% | {C20 diacid-Inp′-AEEA-AEEA}-ASQLSTAATQRLADFLRHSSNNLKPILPPTNVGSNT[Hyp]-NH2 [M36]
9 | 0.043 nM | 124% | {C20 diacid-Trx′-AEEA-AEEA}-ASQLSTAATQRLADFLRHSSNNLKPILPPTNVGSNT[Hyp]-NH2 (reading uncertain) [M35]
